Earlier results, collected in publication PMC6963778.

Target: RNF4 (Homo sapiens) (UniProt P78317)

Kd: 180 nM
Substance: RNF4 (from UniProt P78317)
